Legend:
[1] = target: T1, H3 15-31 peptide, K18ac+K23ac
T1 chain: APRKQLATKAARKSAPA

[2] = target: rH3 pan-acetylated with acetic anhydride
H3 15-31 peptide, K27me2 = target: T2, H3 15-31 peptide, K27me2
T2 chain: APRKQLATKAARKSAPA

[3] = target: C-terminally 6xHIS tagged, full-length recombinant histone H3
[4] = target: T3, H3 15-31 peptide, K23 acetyl
T3 chain: APRKQLATKAARKSAPA

[5] = target: T4, H3 15-31 peptide, K18 acetyl
T4 chain: APRKQLATKAARKSAPA

B1: recombinant mouse Cathepsin L (R&D Systems, # 1515-CY-010) (protein)
chain: TPKFDQTFSAEWHQWKSTHRRLYGTNEEEWRRAIWEKNMRMIQLHNGEYSNGQHGFSMEMNAFGDMTNEEFRQVVNGYRHQKHKKGRLFQEPLMLKIPKSVDWREKGCVTPVKNQGQCGSCWAFSASGCLEGQMFLKTGKLISLSEQNLVDCSHAQGNQGCNGGLMDFAFQYIKENGGLDSEESYPYEAKDGSCKYRAEFAVANDTGFVDIPQQEKALMKAVATVGPISVAMDASHPSLQFYSSGIYYEPNCSSKNLDHGVLLVGYGYEGTDSNKNKYWLVKNSWGSEWGMEGYIKIAKDRDNHCGLATAASYPVVN
[1]
  ELISA with the H3cs.1 antibody of the cleavage product: the K23ac peptide shows very little cleavage activity at H3cs.1, both alone (green) and in combination with K18ac (black)
[2]
  H3 cleavage assay, immunoblot (substrate 3 against unmodified substrate 1): the acetylation of lysine residues greatly reduced cleavage of H3 by rCathepsin L at both pH 7.5 and 5.5
H3 15-31 peptide, K27me2
  ELISA with the H3cs.1 antibody of the cleavage product, against the unmodified H3 15-31 peptide: K27me2 (magenta) strongly increases the ability of Cathepsin L to cleave at H3cs.1 as compared to the matched unmodified H3 15-31 peptide
[3]
  H3 cleavage assay (immunoblot with HIS-HRP and H3.cs1 antibodies; mass spectrometry): recombinant mouse Cathepsin L was able to cleave recombinant histone H3 at both pH 5.5 and pH 7.4
  H3 cleavage assay with pre-activated enzyme, immunoblot with HIS and H3.cs1 antibodies: pre-activated Cathepsin L cleaves rH3-HIS robustly and produces a pattern that is similar to that observed in vivo
[4]
  ELISA with the H3cs.1 antibody of the cleavage product: the K23ac peptide shows very little cleavage activity at H3cs.1, both alone (green) and in combination with K18ac (black)
rH3-HIS+K27me2
  H3 cleavage assay, immunoblot (substrate 2 against unmodified substrate 1): K27me2 increases H3 cleavage
[5]
  ELISA with the H3cs.1 antibody of the cleavage product, against the unmodified H3 15-31 peptide: acetylation at K18 (blue) also increases this activity
